Measured values published in article PMC12279963 (Nature Communications, 2025).
Numbering of substitutions follows the chain as printed. In names and notes the source's numbering stands.

B1: LpoB^64-213 (pSI259), wild type (domain or fragment)
chain: HEDQTAPPAPHIRHYDWNGAMQPMVSKMLGADGVTAGSVLLVDSVNNRTNGSLNAAEATETLRNALANNGKFTLVSAQQLSMAKQQLGLSPQDSLGTRSKAIGIARNVGAHYVLYSSASGNVNAPTLQMQLMLVQTGEIIWSGKGAVSQQ
B2: LpoB^64-213 S157V Y178W (domain or fragment)
chain: B1 chain with S94V, Y115W
B3: LpoB^64-213 A164S S180I S157V (combined) (domain or fragment)
chain: B1 chain with S94V, A101S, S117I
B4: EcLpoB^S211C (pSI204), truncation 21-213, Cy5-labelled (natural protein, E. coli, UniProt P0AB38 21-213, looked up)
chain: VGQREPAPVEEVKPAPEQPAEPQQPVPTVPSVPTIPQQPGPIEHEDQTAPPAPHIRHYDWNGAMQPMVSKMLGADGVTAGSVLLVDSVNNRTNGSLNAAEATETLRNALANNGKFTLVSAQQLSMAKQQLGLSPQDSLGTRSKAIGIARNVGAHYVLYSSASGNVNAPTLQMQLMLVQTGEIIWSGKGAVCQQ
modifications: Cy5 (sulfo-Cy5-maleimide) on C211

Legend:
[1] = target: T1, EcPBP1b^82-804 (pSI199), TM domain substituted with an N-terminal cysteine acylation site, ALFA-tagged (E. coli) (UniProt P02919); experiment: BLI
T1 sequence (P02919 82-804, looked up): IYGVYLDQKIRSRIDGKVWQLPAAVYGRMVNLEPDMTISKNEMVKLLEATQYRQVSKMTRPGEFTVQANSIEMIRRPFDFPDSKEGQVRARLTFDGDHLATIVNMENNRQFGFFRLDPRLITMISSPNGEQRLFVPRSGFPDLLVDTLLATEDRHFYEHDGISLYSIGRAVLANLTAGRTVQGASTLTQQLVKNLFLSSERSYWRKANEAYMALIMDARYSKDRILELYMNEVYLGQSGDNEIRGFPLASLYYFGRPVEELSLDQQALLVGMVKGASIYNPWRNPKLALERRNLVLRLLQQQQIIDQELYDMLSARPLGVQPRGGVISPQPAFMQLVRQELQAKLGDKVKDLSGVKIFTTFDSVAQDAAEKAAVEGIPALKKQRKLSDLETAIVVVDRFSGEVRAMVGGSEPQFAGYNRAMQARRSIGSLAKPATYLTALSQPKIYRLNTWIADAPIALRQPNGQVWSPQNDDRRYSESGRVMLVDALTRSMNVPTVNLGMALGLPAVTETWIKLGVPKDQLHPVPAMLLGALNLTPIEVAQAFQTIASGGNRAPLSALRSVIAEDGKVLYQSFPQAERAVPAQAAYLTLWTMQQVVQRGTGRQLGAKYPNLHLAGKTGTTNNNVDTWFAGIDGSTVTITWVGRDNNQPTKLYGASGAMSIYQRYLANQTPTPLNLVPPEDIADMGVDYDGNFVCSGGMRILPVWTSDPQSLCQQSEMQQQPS

[2] = target: T2, EcPBP1b^C794A (pSI233), truncation 58-804, Cy3-labelled at C776 (E. coli, UniProt P02919 58-804, C794A, Cy3 (sulfo-Cy3-maleimide) on C776); experiment: FRET or BRET
T2 sequence (looked up): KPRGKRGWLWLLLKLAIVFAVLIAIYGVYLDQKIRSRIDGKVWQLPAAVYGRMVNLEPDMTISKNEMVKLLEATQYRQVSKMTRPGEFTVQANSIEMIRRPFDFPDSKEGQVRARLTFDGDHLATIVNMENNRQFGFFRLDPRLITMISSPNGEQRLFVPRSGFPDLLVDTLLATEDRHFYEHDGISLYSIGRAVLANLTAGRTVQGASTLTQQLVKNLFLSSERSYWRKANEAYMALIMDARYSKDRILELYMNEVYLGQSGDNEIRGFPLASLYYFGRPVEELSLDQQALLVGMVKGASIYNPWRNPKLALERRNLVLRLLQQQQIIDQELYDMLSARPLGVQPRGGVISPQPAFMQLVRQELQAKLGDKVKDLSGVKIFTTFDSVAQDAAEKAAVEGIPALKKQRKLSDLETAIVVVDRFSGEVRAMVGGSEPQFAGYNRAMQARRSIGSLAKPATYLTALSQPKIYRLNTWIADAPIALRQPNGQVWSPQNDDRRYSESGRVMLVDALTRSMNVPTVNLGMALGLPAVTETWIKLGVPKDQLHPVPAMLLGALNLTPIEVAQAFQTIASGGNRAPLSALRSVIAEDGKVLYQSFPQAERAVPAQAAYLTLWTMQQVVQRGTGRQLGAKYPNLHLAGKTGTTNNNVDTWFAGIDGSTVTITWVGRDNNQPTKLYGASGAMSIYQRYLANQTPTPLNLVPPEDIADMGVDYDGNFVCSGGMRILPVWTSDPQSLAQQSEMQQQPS

Binder	Kd [1] [µM]	Kd [2] [µM]
B1	0.915	
B2	0.024	
B3	0.009	
B4		0.9
